From US5607850A, “Enzyme from microbial source: phthalyl amidase” (Eli Lilly and Company, priority 1995, dated 1997)

Tests used:
[1] = Phthalyl amidase specific activity with chromogenic substrate (II) during purification (Tables 2 and 3); type: biochemical
Method: The assay reaction mixture (1 ml) consisted of 0.3 μmol of the chromogenic substrate (II) and 0.001-0.5 μg of enzyme preparation in 50 mM potassium phosphate buffer, pH 8.0 (buffer A). The enzymatic reaction was conducted at 30° C. for 10 minutes and the appearance of product was monitored at 380 nm (or 430 nm). The amount of substrate hydrolyzed was calculated from a standard curve of the amine product.
The phthalyl amidase activity reported in Table 2 was determined using the chromogenic substrate as in Example 3. A typical reaction mixture in a total volume of 1 ml contained 0.2 mg of the chromogenic substrate and an aliquot of phthalyl amidase in buffer A. The enzymatic reaction was conducted at 30° C. for 10-15 min. Formation of the reaction product was monitored with a spectrophotometer at 430 nm (or 380 nm) and quantitated from a standard curve of the product.
The concentrated and diafiltered Super-Q mainstream was applied to a hydroxylapatite column (3.2×40 cm) equilibrated in buffer A. After washing the column with this buffer, phthalyl amidase was eluted using a linear gradient of 0-500 mM phosphate buffer, pH 8.0. Fractions were assayed according to the chromogenic substrate method (see Example 3) and the active fractions were pooled (1 L) and concentrated (400 ml).

[2] = Effect of pH on phthalyl amidase activity; type: biochemical
Method: The effect of pH on the reaction rate of the analytical scale purified enzyme was determined using phthalamido carbacephem (III) as substrate. [drawing 5]
A typical reaction mixture consisted of 1 ml total volume and contained 0.1 mM III, 0.1 μM phthalyl amidase in 50 mM potassium phosphate buffer (pH 5.5-9.0) at 32° C. for 20 minutes. The reactions were stopped by the addition of 1 ml methanol. After removal of precipitate by centrifugation, an aliquot of the supernatant fraction (typically 30 μl) was monitored for the beta-lactam nucleus and phthalic acid by HPLC using a Zorbax C8 column (0.46×15 cm; MacMod Analytical Inc., Chadds Ford, Pa.). The two reaction products were eluted by a mobile phase constructed as continuous mixed gradients from (a) 1% ACN (acetonitrile)/0.2% TFA (trifluoroacetic acid) and (b) 80% ACN/0.2% TFA as follows: 1) 0% (b), 3min; 2) 0-50% (b), 0.5 min; 3) 50-100% (b), 3 min; 4) 100% (b), 2.5 min; 5) 100-1% (b), 0.1 min; and 6) 0% (b), 5 min. At a flow rate of 1.5 ml/min, retention times of the beta-lactam nucleus and phthalic acid, as measured at 254 nm, were 2.3 and 7.2 min, respectively.

[3] = Optimum reaction temperature of phthalyl amidase; type: biochemical
Method: Test reactions were carried out similar to Example 5 except that all incubations were performed in 50 mM potassium phosphate buffer at pH 8.2.Solutions of the substrate were pre-incubated for 5 minutes at temperatures between 2° and 60° C. The enzymatic reaction was initiated by the addition of phthalyl amidase and stopped by the addition of 1 ml methanol. Specific activity of the enzyme was determined by monitoring the hydrolysis of III by HPLC as in Example 5.

[4] = Optimum salt concentration for phthalyl amidase; type: biochemical; details: for Specific Activity: pH 8.2, 32° C.
Method: Test reactions were carried out similar to Example 6 except that buffer concentrations ranging from 10 to 200 mM at 32° C. were examined. All other conditions and analyses were the same.

[5] = Stability of phthalyl amidase: effect of ionic strength and pH; type: physicochemical
Method: The stability of phthalyl amidase at pH values ranging from 6-9 was determined as described in Example 5 at 30° C. in both 20 and 200 mM potassium phosphate buffer. […] In 200 mM buffer, the enzyme retained at least 80% of its activity for 100 hours irrespective of the pH of the incubating medium.

[6] = Temperature stability of phthalyl amidase; type: physicochemical; details: pH 8.2; for enzyme activity retained: 48 hours
Method: The phthalyl amidase enzyme was also tested for stability at varying temperature. The enzyme was incubated at pH 8.2 in the temperature range of 4°-50° C. for 48 hours in 50 and 200 mM phosphate buffer. […] In 200 mM buffer, 80% of the enzyme activity was retained in temperatures up to 35° C. and 30% of the enzyme activity was retained after 48 hours incubation at 40° C.

[7] = Isoelectric focusing of phthalyl amidase; type: physicochemical
Method: The molecular weight of the phthalyl amidase was determined to be 49,000 by electrospray mass spectrometry. The enzyme is monomeric with an isoelectric point estimated by isoelectric focusing to be pH 5.5.

B1: phthalyl amidase: specific enzyme which readily removes the phthalyl moiety from phthalyl-containing amides, from Xanthobacter agilis (protein)
chain: QAPSVHQHVAFTEEIGDLPDGSSYMIRVPENWNGVLIRDLDLVSGTSNSNAARYETMLKEGFAVAGTARHPLRQWQYDPAHEIENLNHVLDTFEENYGSPERVIQYGCSGGAHVSLAVAEDFSDRVDGSVALAAHTPVWIMNSFLDGWFSLQSLIGEYYVEAGHGPLSDLAITKLPNDGSSNSSGHGMEGDLPAAWRNAFTAANATPEGRARMALAFALGQWSPWLADNTPQPDLDDPEAIADSVYESAMRLAGSPGGEARIMFENAARGQQLSWNDDIDYADFWENSNPAMKSAVQELYDTAGLDLQSDIETVNSQPRIEASQYALDYWNTPGRNVIGDPEVPVLRLHMIGDYQIPYSLVQGYSDLISENNNDDLYRTAFVQSTGHCNFTAAESSAAIEVMMQRLDTGEWPSTEPDDLNAIAEASNTGTEARFMALDGWEIPEYNRTWKPE
**Q.** Which “Spec. Act.” value ([1]; Table 2, Ammonium Sulfate: 67-97% cut) does the source give for B1 here?
**A.** Its value is 1.547 Units/mg.

**Q.** What about the “Spec. Act.” value ([1]; Table 2, Crude Extract) of the same molecule?
**A.** The value was 0.063 Units/mg.

**Q.** And the “Spec. Act.” value ([1]; Table 2, Hydroxylapatite)?
**A.** The value was 5.52 Units/mg.

**Q.** And the “Spec. Act.” value ([1]; Table 2, Mono P)?
**A.** Its value is 7.2 Units/mg.

**Q.** And the “Spec. Act.” value ([1]; Table 2, Phenyl-Sepharose)?
**A.** The value was 2.505 Units/mg.

**Q.** What about the “Spec. Act.” value ([1]; Table 2, Q Sepharose) of the same molecule?
**A.** Its value is 1.214 Units/mg.

**Q.** What about the “Spec. Act.” value ([1]; Table 3 (preparative), Crude Extract) of the same molecule?
**A.** The value was 0.8 Units/mg.

**Q.** And the “Spec. Act.” value ([1]; Table 3 (preparative), Hydroxylapatite)?
**A.** Its value is 9.0 Units/mg.

**Q.** And the “Spec. Act.” value ([1]; Table 3 (preparative), Super-Q)?
**A.** The value was 3.0 Units/mg.

**Q.** And the “Reactive pH range” value [2]?
**A.** Its value is 5.5 to 9.0 pH.

**Q.** What about the “optimum pH” value [2] of the same molecule?
**A.** The value was 8.0±0.4 pH.

**Q.** And the “Optimal pH range for enzyme activity” value ([2]; 32° C., 50 mM potassium phosphate)?
**A.** Its value is at least 7.8 pH.

**Q.** And the “Specific Activity” value ([2]; pH 7.0, 32° C.)?
**A.** The value was 125.4 μmol/min/μmol enzyme.

**Q.** What about the “Specific Activity” value ([2]; pH 7.2, 32° C.) of the same molecule?
**A.** Its value is 130.4 μmol/min/μmol enzyme.

**Q.** And the “Specific Activity” value ([2]; pH 7.4, 32° C.)?
**A.** The value was 155.2 μmol/min/μmol enzyme.

**Q.** What about the “Specific Activity” value ([2]; pH 7.6, 32° C.) of the same molecule?
**A.** The value was 172.5 μmol/min/μmol enzyme.

**Q.** And the “Specific Activity” value ([2]; pH 7.8, 32° C.)?
**A.** The value was 184.2 μmol/min/μmol enzyme.

**Q.** What about the “Specific Activity” value ([2]; pH 8.0, 32° C.) of the same molecule?
**A.** The value was 195.3 μmol/min/μmol enzyme.

**Q.** And the “Specific Activity” value ([2]; pH 8.2, 32° C.)?
**A.** The value was 201.2 μmol/min/μmol enzyme.

**Q.** And the “Specific Activity” value ([2]; pH 8.4, 32° C.)?
**A.** Its value is 208.0 μmol/min/μmol enzyme.

**Q.** And the “Specific Activity” value ([2]; pH 8.6, 32° C.)?
**A.** The value was 181.7 μmol/min/μmol enzyme.

**Q.** What about the “Specific Activity” value ([2]; pH 8.8, 32° C.) of the same molecule?
**A.** The value was 185.1 μmol/min/μmol enzyme.

**Q.** What about the “Specific Activity” value ([2]; pH 9.0, 32° C.) of the same molecule?
**A.** Its value is 33.1 μmol/min/μmol enzyme.

**Q.** What about the “enzyme activity outside temperature range” value ([3]; below 10° C. and above 50° C., pH 8.2) of the same molecule?
**A.** Its value is “Little enzyme activity”.

**Q.** What about the “temperature of maximum reaction rate” value ([3]; pH 8.2, 50 mM potassium phosphate) of the same molecule?
**A.** The value was 34 °C.

**Q.** And the “effect of high salt concentration on specific activity” value ([4]; 10 to 200 mM buffer)?
**A.** Its value is “markedly improved the specific activity”.

**Q.** And the “Specific Activity” value ([4]; K Phosphate 10 mM)?
**A.** Its value is 148 μmol/min/μmol enzyme.

**Q.** What about the “Specific Activity” value ([4]; K Phosphate 50 mM) of the same molecule?
**A.** Its value is 300 μmol/min/μmol enzyme.

**Q.** And the “Specific Activity” value ([4]; K Phosphate 100 mM)?
**A.** Its value is 350 μmol/min/μmol enzyme.

**Q.** And the “Specific Activity” value ([4]; K Phosphate 200 mM)?
**A.** The value was 360 μmol/min/μmol enzyme.

**Q.** And the “Specific Activity” value ([4]; NH4 Acetate 10 mM)?
**A.** Its value is 25 μmol/min/μmol enzyme.

**Q.** And the “Specific Activity” value ([4]; NH4 Acetate 50 mM)?
**A.** The value was 50 μmol/min/μmol enzyme.

**Q.** And the “Specific Activity” value ([4]; NH4 Acetate 100 mM)?
**A.** Its value is 75 μmol/min/μmol enzyme.

**Q.** What about the “Specific Activity” value ([4]; NH4 Acetate 200 mM) of the same molecule?
**A.** The value was 100 μmol/min/μmol enzyme.

**Q.** And the “Specific Activity” value ([4]; Tris-HCl 10 mM)?
**A.** Its value is 73 μmol/min/μmol enzyme.

**Q.** What about the “Specific Activity” value ([4]; Tris-HCl 50 mM) of the same molecule?
**A.** Its value is 230 μmol/min/μmol enzyme.

**Q.** And the “Specific Activity” value ([4]; Tris-HCl 100 mM)?
**A.** The value was 275 μmol/min/μmol enzyme.

**Q.** And the “Specific Activity” value ([4]; Tris-HCl 200 mM)?
**A.** Its value is 300 μmol/min/μmol enzyme.

**Q.** What about the Optimum ionic strength [5] of the same molecule?
**A.** Its Optimum ionic strength is at least 200 mM.

**Q.** What about the “ionic strength that enhances pH and temperature stability” value [5] of the same molecule?
**A.** The value was “above 20 mM”.

**Q.** And the “optimum stability pH” value [5]?
**A.** The value was 8.0±0.4 pH.

**Q.** What about the “pH range of stability” value [5] of the same molecule?
**A.** The value was 6-9 pH.

**Q.** What about the enzyme activity lost ([5]; 20 mM potassium phosphate, within 2 hours, 30° C., any pH 6-9) of the same molecule?
**A.** Its enzyme activity lost is “all enzyme activity as lost”.

**Q.** And the enzyme activity retained ([5]; 200 mM potassium phosphate, 100 hours, 30° C., pH 6-9)?
**A.** The enzyme activity retained was “at least 80%”.

**Q.** And the enzyme activity lost ([6]; 50 mM phosphate, above 40° C., within 48 hours)?
**A.** The enzyme activity lost was “all enzyme activity was lost”.

**Q.** And the enzyme activity retained ([6]; 50 mM phosphate, below 25° C.)?
**A.** The enzyme activity retained was 90%.

**Q.** And the enzyme activity retained ([6]; 200 mM phosphate, 40° C.)?
**A.** Its enzyme activity retained is 30%.

**Q.** What about the isoelectric point [7] of the same molecule?
**A.** The isoelectric point was about 5.5 pH.
